Reference: paper PMC10934791 (Molecules, 2024)

B1: radioiodinated α-bungarotoxin (ligand)
chain: IVCHTTATSPISAVTCPPGENLCYRKMWCDAFCSSRGKVVELGCAATCPSKKPYEEVTCCSTDKCNPHPKQRPG

What was measured:
[1] = biological target: recombinant Lymnaea stagnalis acetylcholine-binding protein (AChBP) produced in LEXSY (Lymnaea stagnalis); assay: radioligand binding
[2] = biological target: T1, recombinant L. stagnalis AChBP expressed in the insect Sf9 cells (Lymnaea stagnalis, UniProt P58154 20-229); assay: radioligand binding; conditions: both partners purified
T1 construct: also called insect cell-produced AChBP; standard specimen of insect cell-produced AChBP
T1 sequence (P58154 20-229): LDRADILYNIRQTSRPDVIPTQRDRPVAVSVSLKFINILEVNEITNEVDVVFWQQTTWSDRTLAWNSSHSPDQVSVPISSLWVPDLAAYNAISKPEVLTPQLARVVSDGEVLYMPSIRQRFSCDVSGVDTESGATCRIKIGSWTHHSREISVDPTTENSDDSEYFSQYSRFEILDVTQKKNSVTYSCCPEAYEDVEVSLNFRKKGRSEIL

Sequence of recombinant Lymnaea stagnalis acetylcholine-binding protein (AChBP) produced in LEXSY (Lymnaea stagnalis) (P58154 20-229 limits assumed): as the sequence (P58154 20-229) above

Molecule	Kd [1] [nM]	Kd [2] [nM]
radioiodinated α-bungarotoxin (from UniProt P60615 22-95) (ligand)	0.05	–
B1	–	0.062 ± 0.013
